Series [1] concerns Ad2 proteinase (rEP protein). Format: biochemical, human adenovirus type 2. The note with it: disrupted H2ts1 virus treated with DNase prior to the assay, plus recombinant proteinase. An excerpt: (§1) The nature of the proteinase cofactor(s) was pursued with the aid of the second assay, which utilizes the substrate (Leu-Arg-Gly-Gly-NH)2 -rhodamine. The design of this substrate was based on two facts. (1) It was known that the proteinase present in disrupted Ad2 virions would cleave small peptides with sequence similar to that found at natural cleavage sites in adenovirus virion precursors (Webster et al., 1989). (2) Cleavage of either tetra-peptide sequence from the substituted rhodamine substrate produces a very large increase, up to a 3500-fold, in fluorescence. Under conditions where only a small fraction of the rhodamine substrate is cleaved, the increase in fluorescence is proportional to the amount of proteinase present and to the time of incubation. Thus, the fluorescence assay provides a quantitative method for assessing proteinase activity that is more sensitive convenient and rapid than the gel electrophoresis assay.
(§2) After determining the identity of the two cofactors, reconstitution of adenovirus proteinase activity in vitro with purified components was accomplished. […] In (a), Assays in 1 ml contained 1.2 nM rEP protein, 11.9 pM Ad2 DNA and the indicated concentrations of pVI-c peptide. The rate of substrate hydrolysis is the rate in the reaction minus the rate with the rEP protein and Ad2 DNA alone which was 0.068 pmol min^-1. In (b), Assays in 1 ml contained 1.2 nM rEP protein, 36 nM pVI-c peptide and the indicated concentrations of Ad2 DNA. The rate of substrate hydrolysis is the rate in the reaction minus the rate with the rEP protein and pVI-c alone which was 2.76 pmol min^-1. The concentration of (Leu-Arg-Gly-Gly-NH)2 -rhodamine was 5 μM, and its rate of hydrolysis to Leu-Arg-Gly-Gly-NH-rhodamine was determined by measuring the increase in fluorescence every 3 minutes for 15 minutes. The pVI-c peptide was assembled in a peptide synthesizer.
(§3) Assays were performed in 400 μl of Assay Buffer (50 mM Tris-HCl, pH 7.4, 25 mM NaCl, 10 mM octylglucoside, and 1 mM dithiothreitol). The concentration of the fluorogenic substrate, (Leu-Arg-Gly-Gly-NH)2 -rhodamine was 5 μM. When present, the number of disrupted virus particles was 10^10 and the amount of recombinant proteinase was 0.12 mAU280 nm. […] After 30 minutes at 37° C., a 360 μl aliquot of the reaction was added to 340 μl of Assay Buffer minus octylglucoside, and the increase in fluorescence was measured. The excitation wavelength was 492 nm and the emission wavelength was 523 nm, both with a bandwidth of 5 nm. The change in fluorescence, ΔF, is the magnitude of the fluorescence from the sample minus the magnitude of the fluorescence from an identical solution without enzyme.
(§4) DNase-treated disrupted virus was obtained by incubating 2×10^10 disrupted virions in 20 μl containing 0.1M NaAc, pH 5.0, 5 mM MgCl2, and 55 μg/ml DNase I for 4 minutes at 25° C. Then, EDTA to 23 mM and dithiothreitol to 2.3 mM were added, and the reactions were heated at 56° C. for 1 minute to inactivate the DNase.
(§5) For the assays shown in FIG. 8, the DNase reactions were diluted by the addition of 380 μl Assay Buffer containing the substrate, the proteinase and either 2×10^10 molecules of Ad2 DNA (+) or no DNA (-). After 30 minutes at 37° C., 360 μl of the reactions were added to 340 μl Assay Buffer minus octylglucoside and the increase in fluorescence was measured. The assays in (B) and (C) were identical to those in (A) except that in (B) H2ts1 virus was added after the DNase was inactivated (i-DNase) and in (C) no Dnase was present. In (D) recombinant proteinase plus 10^10 molecules of Ad2 DNA were preincubated for 10 minutes at 37° C. before adding substrate.
(§6) .dagger. All assays contained 8.3 nM rEP protein, 98 nM pVIc peptide, and
(§7) 1 μM (Leu--Arg--Gly--Gly--NH)2rhodamine. The rate of substrate

The nature of series [2]: Stability/sensitivity of the peptide cofactor. Format: physicochemical. The conditions noted are these: boiling for 5 minutes.
Series [3] concerns the target T1, Ad2 proteinase (rEP protein) (Human adenovirus C serotype 2, UniProt P03252).
T1 construct: Plasmid pT7AD23k6 contains the 204 codons of the Ad2 proteinase reading frame plus a translational termination codon; made in house; host or cells: E. coli BL21(DE3)
Format: biochemical, human adenovirus type 2. The conditions noted are these: 1.2 nM rEP protein, 36 nM pVI-c peptide, no DNA, 5 μM substrate, 1 ml.
Excerpt: as §1, §2, §3, §4, §5, §6, §7

The target in series [4] is T2, recombinant Ad2 proteinase (Human adenovirus C serotype 2, UniProt P03252).
T2 construct: also expresses the wild-type 204-amino acid EP polypeptide; made in house; host or cells: E. coli BL21(DE3)
T2 sequence (P03252 whole entry): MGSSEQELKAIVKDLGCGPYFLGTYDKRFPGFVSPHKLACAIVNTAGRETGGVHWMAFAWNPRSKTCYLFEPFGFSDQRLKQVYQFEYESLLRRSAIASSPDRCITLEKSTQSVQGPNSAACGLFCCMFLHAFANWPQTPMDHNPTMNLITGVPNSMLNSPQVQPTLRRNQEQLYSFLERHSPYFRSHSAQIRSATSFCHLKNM
The experiment in a line: Cofactor activity in HEP1DBP cleavage by recombinant Ad2 proteinase. The note with it: peptide mixed with recombinant Ad2 proteinase and Ad2 DNA. Format: biochemical, human adenovirus type 2. The procedure:
When purified HEP1DBP was incubated with disrupted wild-type adenovirus 2 virions, it was cleaved, as determined from the change in its mobility during SDS-polyacrylamide gel electrophoresis. No cleavage was observed when incubation was with disrupted H2ts1 virions alone.
To determine if the Ad12 carboxy-terminal fragment of pVI functioned as the EP co-factor, the corresponding synthetic peptide was mixed with recombinant Ad2 proteinase and Ad2 DNA, and incubated with the HEP1DBP substrate.

Series [5] concerns (Leu-Arg-Gly-Gly-NH)2 -rhodamine. Put plainly: Fluorescence assay of proteinase activity of virus and recombinant proteinase preparations. Format: biochemical. The note with it: about 5% pure, from Sf9 cells; Ad2 DNA and H2ts1 virions to provide cofactor.
Excerpt: as §1
as §3, with “The concentration of the fluorogenic substrate, (Leu-Arg-Gly-Gly-NH)2 -rhodamine was 5 μM.” left out
Disrupted virus was obtained as follows: Twice CsCl-banded virus was dialyzed against 10 mM Tris-HCl, pH 8.0, 1mM EDTA and centrifuged at 100,000×g for 1 hour. The pellet was suspended in 10 mM Tris-HCl, pH 6.8, containing 20% (v/v) glycerol and, after three 10 second bursts of sonication, was stored at -20° C. The fluorogenic substrate was synthesized and purified at BNL by Dr. Walter Mangel, using methods similar to those previously described by Dr. Mangel. These methods are described in two U.S. Patents (U.S. Pat. No. 4,557,862 entitled "Rhodamine derivatives as fluorogenic substrates for proteinases" by Mangel, W. F., Leytus, S., and L. Helhado; issued Dec. 10, 1985; U.S. patent application Ser. No. 780,552; "Novel rhodamine derivatives as fluorogenic substrates" by Mangel, W. F., Leytus, S., and L. Helhado; filing date Sep. 24, 1985) and in other publications by Mangel and co-workers.

Series [6] deals with Ad2 major core protein precursor, pVII. Put plainly: Assay of adenovirus proteinase activity in crude extracts: cleavage of [35S]-methionine-labeled pVII (SDS-PAGE, autoradiography). Format: biochemical, adenovirus type 2. The note with it: purified from baculovirus-infected Sf9 insect cells.

T1 sequence (P03252 whole entry): as above

On to DNase, for which, in series [1], the “Proteinase activity lost relative to untreated H2ts1 virus” value is 94%.
On to GVQSLHRRRCF [pVI-c peptide], for which the “Heat stability of cofactor activity” value in series [2] is on record as “did not irreversibly denature”. In addition, the “Rate of substrate hydrolysis with the rEP protein and pVI-c alone” value in series [3] was 2.76 pmol min^-1. The “Cleavage of the HEP1DBP substrate” value in series [4] was “Rapid and complete cleavage”.
On to “vNPVAd2EP: recombinant Ad2 proteinase expressed in Sf9 insect cells from baculovirus vector vNPVAd2EP”, for which the Specific activity result in series [5] is “equivalent to that of bacterially-produced proteinase”. Further, the “Activity in the crude extract assay” value in series [6] was “active”.

These data come from US5935840A, “Activated recombinant adenovirus proteinases” (priority 1995, dated 1999).
